{"source": "patent US20090042209A1", "about": "(NOX TECHNOLOGIES, published 2009)", "binders": {"B1": {"name": "recombinant anti-tNOX single chain variable region (scFv) antibody (MAB 12.1 scFv) carrying an S-tag (scFv)", "scFv": "EVKLQESGTEVVKPGASVKLSCKASGYIFTSYDIDWVRQTPEQGLEWIGWIFPGEGSTEYNEKFKGRATLSVDKSSSTAYMELTRLTSEDSAVYFCARGDYYRRYFDLWGQGTTVTVSSGGGGSGGGGSGGGGSENVLTQSPAIMSASPGERVTMTCSASSSIRYIYWYQQKPGSSPRLLIYDTSNVAPGVPFRFSGSGSGTSYSLTINRMEAEDAATYYCQEWSGYPYTFGGGTKLELKAKETAAAKFERQHMDS", "notes": "Expressed in E. coli from pET11-ScFv(S) and renatured from inclusion bodies; also called ScFv(S); NTI ScFv MAB 12.1"}}, "biological_target": "T1, albumin (serum) (human, UniProt P02768 25-609)", "T1 construct": "Present in the serum sample on the 2-D blot; also called unreactive albumin", "T1 sequence (P02768 25-609 limits assumed)": "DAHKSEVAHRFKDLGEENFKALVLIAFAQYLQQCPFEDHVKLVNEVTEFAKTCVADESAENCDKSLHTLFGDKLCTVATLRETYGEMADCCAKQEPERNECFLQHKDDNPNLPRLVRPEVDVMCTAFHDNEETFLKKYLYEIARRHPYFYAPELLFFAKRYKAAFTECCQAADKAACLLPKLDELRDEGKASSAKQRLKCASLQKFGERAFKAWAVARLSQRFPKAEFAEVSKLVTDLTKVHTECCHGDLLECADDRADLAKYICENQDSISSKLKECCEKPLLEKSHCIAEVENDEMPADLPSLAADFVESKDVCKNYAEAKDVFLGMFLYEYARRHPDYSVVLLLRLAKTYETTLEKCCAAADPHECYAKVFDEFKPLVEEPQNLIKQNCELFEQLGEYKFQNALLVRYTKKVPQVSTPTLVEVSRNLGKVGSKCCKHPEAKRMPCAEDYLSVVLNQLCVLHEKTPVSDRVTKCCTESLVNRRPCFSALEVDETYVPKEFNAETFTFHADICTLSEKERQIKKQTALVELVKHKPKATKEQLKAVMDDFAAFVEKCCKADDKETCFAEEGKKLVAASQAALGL", "experiment": "2-D gel electrophoresis immunoblot of pooled cancer sera, scFv with anti-S alkaline phosphatase detection", "from_the_text": "FIG. 1 provides the results of analytical 2-D gel electrophoresis of ECTO-NOX enriched serum proteins from a preparation of sera pooled from cancer patients (breast, ovarian, lung and colon) concentrated by nickel agarose precipitation, followed by immunoblots analysis. Separation in the first dimension was by isoelectric focusing and in the second dimension by SDS-PAGE (using ampholytes over the pH range of 3 to 10 and 10% polyacrylamide gel). For interpretative purposes, the gel is divided into quadrants I-IV with unreactive albumin (albumin) at the center. Detection was with recombinant anti-tNOX single chain variable region (scFv) antibody (MAB 12.1 scFv) carrying an S-tag followed by alkaline phosphatase-liked anti S (Novagen cat. # 69598-3 or equivalent product) with Western Blue NBT substrate (Promega, Madison, Wis; Cat. No. S3841 or equivalent product). Reactive proteins appear reddish blue.", "data": [{"binder": "B1", "values": [{"measurement": "binding result", "result": "no binding"}]}]}
